Assay results published in US20200055939A1 (Genentech, published 2020).
Where a chain is given by its changes, count along the chain named.

Experiments:
Assay in all cases: SPR, Fab over captured MICA*008.mIgG2a Ala variant; KD relative to wild type
T292A = biological target: T1, T292A
T1 construct: % monomer 80.56; also called MICA*008.mIgG2a T292A
T1 chain: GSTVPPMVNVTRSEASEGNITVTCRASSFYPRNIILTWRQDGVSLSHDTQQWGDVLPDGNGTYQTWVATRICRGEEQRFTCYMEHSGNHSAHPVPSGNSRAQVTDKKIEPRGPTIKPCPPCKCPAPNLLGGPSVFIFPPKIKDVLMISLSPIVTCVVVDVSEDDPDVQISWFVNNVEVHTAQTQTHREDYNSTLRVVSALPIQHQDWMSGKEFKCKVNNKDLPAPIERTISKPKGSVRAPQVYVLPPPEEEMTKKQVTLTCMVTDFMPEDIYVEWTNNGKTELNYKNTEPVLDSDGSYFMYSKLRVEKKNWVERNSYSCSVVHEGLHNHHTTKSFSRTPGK

H248A = biological target: T2, H248A
T2 construct: % monomer 92.05; also called MICA*008.mIgG2a H248A
T2 chain: T1 chain with H47A, A91T

S245A = biological target: T3, S245A
T3 construct: % monomer 93.96; also called MICA*008.mIgG2a S245A
T3 chain: T1 chain with S44A, A91T

S287A = biological target: T4, S287A
T4 construct: % monomer 90.34; also called MICA*008.mIgG2a S287A
T4 chain: T1 chain with S86A, A91T

E277A = biological target: T5, E277A
T5 construct: % monomer 81.58; also called MICA*008.mIgG2a E277A
T5 chain: T1 chain with E76A, A91T

E285A = biological target: T6, E285A
T6 construct: % monomer 83.78; also called MICA*008.mIgG2a E285A
T6 chain: T1 chain with E84A, A91T

S247A = biological target: T7, S247A
T7 construct: % monomer 94.87; also called MICA*008.mIgG2a S247A
T7 chain: T1 chain with S46A, A91T

B1: 6F8.7 Fab (Fab, V domains shown)
VH: DVQLQGSGPGLVKPSQSLSLTCSVTGYSITNDYYWNWIRQFPGNKLEWMGFISFGGSNNYNPSLKNRISITRDTSKNQFFLKLSSVTTEDTATYYCARYDGRGAWFAYWAQGTLVTVSA
VL: DIQMTQSPASLSASVGETVTITCRASGNIHNYLAWYQQKQGKSPQLLVYDAITLADGVPSRFSGSGSGTQYSLKINSLQPEDFGNYYCQHFWSFPLTFGAGTKVEIK
For B1, which fold-decrease in affinity (T292A) is on record?
The fold-decrease in affinity was 1.7.

And the fold-decrease in affinity (H248A)?
The fold-decrease in affinity was 0.6.

And the fold-decrease in affinity (S245A)?
The fold-decrease in affinity was 1.2.

What about the fold-decrease in affinity (S287A) of the same binder?
Its fold-decrease in affinity is 1.1.

And the fold-decrease in affinity (E277A)?
Its fold-decrease in affinity is 2.7.

What about the fold-decrease in affinity (E285A) of the same binder?
Its fold-decrease in affinity is 3.9.

What about the fold-decrease in affinity (S247A) of the same binder?
The fold-decrease in affinity was 0.9.

B2: 1D5 Fab (Fab, V domains shown)
VH: EIQLQQSGPELVKPGASVKVSCKASGYAFTSQNIYWVKQSHGKSLEWIGYIEPYNVVPMYNPKFKGKATLTVDKSSSSAYIHLNSLTSEDSAIYYCARSGSSNFDYWGQGTTLTVSS
VL: EIILTQSPTTMAASPGEKITITCSASSSISSHYLHWYQQKSGFSPKLLIYRTSNLASGVPARFSGSGSGTSYSLTIGTMEAEDVATYYCQQGSSLPLTFGAGTKVEIK
notes: Expressed in E. coli as chimera of murine variable and human constant domains; not shown: human IgG1 CH1 constant domain; human kappa CL constant domain
With B2 as the binder, how does the fold-decrease in affinity (S287A) read?
Its fold-decrease in affinity is 4.9.

What about the fold-decrease in affinity (E277A) of the same binder?
Its fold-decrease in affinity is 1.9.

And the fold-decrease in affinity (S247A)?
Its fold-decrease in affinity is 0.2.

B3: 7D4.6 Fab (Fab, V domains shown)
VH: DVQLQESGPGLVKPSQSLSLTCTVTGYSITSDYAWNWIRQFPRNKLEWMGYINYSGTTNYNPSLKSRISITRDTSKNQFFLQLISVTTEDTATYYCSYYRYDGAWFPYWGQGTLVTVSA
VL: B1 VL with D50N, T53M, G64A, N85S
How did the fold-decrease in affinity (T292A) turn out when B3 was run?
The fold-decrease in affinity was 2.1.

What about the fold-decrease in affinity (H248A) of the same binder?
The fold-decrease in affinity was 0.6.

And the fold-decrease in affinity (S245A)?
The fold-decrease in affinity was 1.6.

And the fold-decrease in affinity (S287A)?
The fold-decrease in affinity was 1.3.

And the fold-decrease in affinity (E277A)?
Its fold-decrease in affinity is 1.3.

What about the fold-decrease in affinity (E285A) of the same binder?
Its fold-decrease in affinity is 7.9.

And the fold-decrease in affinity (S247A)?
The fold-decrease in affinity was 0.8.

B4: 2E5.2.3 Fab (Fab, V domains shown)
VH: QGQMQQSGAELVKPGASVKLSCKTSGFTFSDNYISWLKQKPGQSLEWIAWIYAGTGGTSYNQKFTAKAQLTVDTSSSTAYMQFSSLTTEDSAIYYCARHDYYGTSGAWFAYWGQGTLVTVSA
VL: DVLMTQTPLSLPVSLGDQASLSCRSSQNIVHINGNTYLEWYLQKPGQSPKLLIYKVSNRFSGVPDRFSGSGSGTDFTLKISRVEAEDLGVYYCFQGSHVPWTFGGGTKVEIK
Which results are given for B4?
fold-decrease in affinity (T292A): 1.3; fold-decrease in affinity (H248A): 1; fold-decrease in affinity (S245A): 1; fold-decrease in affinity (S287A): 1; fold-decrease in affinity (E277A): 1.1; fold-decrease in affinity (E285A): 0.9; fold-decrease in affinity (S247A): 1.1
